According to doi:10.1101/598128 (bioRxiv, 2019):

T1: His-Orc1 (subunit of the purified His-ORC complex) (budding yeast, UniProt P54784 1-913)
T1 sequence: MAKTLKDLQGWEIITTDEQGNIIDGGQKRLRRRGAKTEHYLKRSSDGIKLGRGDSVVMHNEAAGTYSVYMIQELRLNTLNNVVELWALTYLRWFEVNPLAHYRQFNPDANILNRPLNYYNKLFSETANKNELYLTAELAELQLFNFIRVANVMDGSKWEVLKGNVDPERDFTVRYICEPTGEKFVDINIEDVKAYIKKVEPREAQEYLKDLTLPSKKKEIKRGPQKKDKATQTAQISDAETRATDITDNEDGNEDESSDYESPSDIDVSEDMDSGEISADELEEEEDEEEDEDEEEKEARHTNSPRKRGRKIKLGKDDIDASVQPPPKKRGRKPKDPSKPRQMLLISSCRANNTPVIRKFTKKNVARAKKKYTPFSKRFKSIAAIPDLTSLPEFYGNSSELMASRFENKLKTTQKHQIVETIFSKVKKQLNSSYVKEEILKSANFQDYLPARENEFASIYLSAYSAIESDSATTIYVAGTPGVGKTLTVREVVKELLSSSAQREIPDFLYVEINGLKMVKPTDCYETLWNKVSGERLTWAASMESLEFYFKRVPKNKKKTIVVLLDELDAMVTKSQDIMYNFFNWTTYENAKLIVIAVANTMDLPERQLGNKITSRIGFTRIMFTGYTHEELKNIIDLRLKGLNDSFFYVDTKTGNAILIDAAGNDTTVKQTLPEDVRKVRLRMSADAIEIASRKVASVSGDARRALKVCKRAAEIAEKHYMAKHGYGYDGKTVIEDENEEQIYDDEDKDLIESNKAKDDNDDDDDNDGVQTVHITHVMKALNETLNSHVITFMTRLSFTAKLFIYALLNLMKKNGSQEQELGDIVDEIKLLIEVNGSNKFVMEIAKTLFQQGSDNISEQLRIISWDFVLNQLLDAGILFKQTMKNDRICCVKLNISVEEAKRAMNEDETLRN

T2: 6xHis-Hop1 (budding yeast, UniProt P20050 1-605)
T2 sequence (looked up): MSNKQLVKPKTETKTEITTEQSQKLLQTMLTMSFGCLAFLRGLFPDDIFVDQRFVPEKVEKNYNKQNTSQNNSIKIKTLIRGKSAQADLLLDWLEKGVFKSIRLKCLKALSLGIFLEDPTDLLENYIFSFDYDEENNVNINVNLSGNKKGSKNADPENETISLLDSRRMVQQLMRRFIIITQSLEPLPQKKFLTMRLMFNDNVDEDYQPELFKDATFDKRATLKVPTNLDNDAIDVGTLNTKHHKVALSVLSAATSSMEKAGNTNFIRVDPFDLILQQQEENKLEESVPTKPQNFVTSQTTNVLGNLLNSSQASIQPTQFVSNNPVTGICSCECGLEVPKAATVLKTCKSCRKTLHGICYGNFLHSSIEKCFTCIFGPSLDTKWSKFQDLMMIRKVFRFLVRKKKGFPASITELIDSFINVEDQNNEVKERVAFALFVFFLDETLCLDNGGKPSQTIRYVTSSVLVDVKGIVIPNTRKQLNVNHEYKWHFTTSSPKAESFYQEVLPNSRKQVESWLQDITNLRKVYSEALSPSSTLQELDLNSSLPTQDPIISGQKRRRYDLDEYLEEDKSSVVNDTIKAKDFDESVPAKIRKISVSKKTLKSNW

B1: Orc5 (subunit of the purified His-ORC complex) (natural protein, budding yeast)
chain: MNVTTPEVAFREYQTNCLASYISADPDITPSNLILQGYSGTGKTYTLKKYFNANPNLHAVWLEPVELVSWKPLLQAIARTVQYKLKTLYPNIPTTDYDPLQVEEPFLLVKTLHNIFVQYESLQEKTCLFLILDGFDSLQDLDAALFNKYIKLNELLPKDSKINIKFIYTMLETSFLQRYSTHCIPTVMFPRYNVDEVSTILVMSRCGELMEDSCLRKRIIEEQITDCTDDQFQNVAANFIHLIVQAFHSYTGNDIFALNDLIDFKWPKYVSRITKENIFEPLALYKSAIKLFLSTDDNLSENGQGESAITTNRDDLENSQTYDLSIISKYLLIASYICSYLEPRYDASIFSRKTRIIQGRAAYGRRKKKEVNPRYLQPSLFAIERLLAIFQAIFPIQGKAESGSLSALREESLMKANIEVFQNLSELHTLKLIATTMNKNIDYLSPKVRWKVNVPWEIIKEISESVHFNISDYFSDIHE
B2: His-MBP-Pch2 (natural protein, budding yeast, UniProt P38126 1-564, looked up)
chain: MSYIVDLQVRGSSLRVIKCMFREDEQISSLHSGSDSKQNSNKKLGEFLNLLKAVVKRKLESFPKDRLKTSIITGQELMREGQGSIEIKDPPTEAQQHLIRSLAKVLLHQFSSINGKVNTVNEGQDNLFLSLFVKKISIEQQSTSHVSIKLNFHEKINLGQHIDSILDSEETNESDTYHMGSVDEFIIYPFCCLEEQDELKNGSILSTEFDKIDLELDEDDGFEGETLNNCINSVGNFDIPLSKQTLNLVNISYLPGTTFEGQWESLYFGNNIKERLYSYATISLKIARFKQTGDSNQEDITTLITNNKLLLVHGPPGTGKTTLCKALCQKLSVRREFSDGSDTIDTNYKGIIIELSCARIFSKWFGESSKNISIVFKDIEELLKVNEGRGIFICLLIDEVEAIASSRTNLSSRNESTDGIRVVNTLLTQLDRLKKYHNFLALATSNLLDSLDDAFVDRADGVFYVGNPTAEGILHILKVCIEEMITSGIILFHARSTGVKFFNKYQDILRKIAIKCSTVDISGRTIRKLPLMCLSEYFRTFPVDDDEFVLALAMSARKLSAARK

Experiments:
[1] = target: B2; experiment: cross-linking
[2] = target: the molecule itself; experiment: SEC
[3] = target: T1, His-Orc1 (subunit of the purified …); experiment: cross-linking
[4] = target: T2, 6xHis-Hop1; experiment: pull-down

| binding result [1] | binding result [3] | binding result [4] | Binder | stoichiometry N [2] |
| --- | --- | --- | --- | --- |
| binds |  |  | B1 |  |
|  | binds | binds | B2 | 6 |
